Measured values: patent publication US20250250357A1 (NANJING ZAIMING PHARMACEUTICAL, published 2025)
Read-outs that look alike come from different tables or passages of the source.

T1: monkey MSLN on HEK293T-monkey MSLN recombinant cells (monkey)
T1 construct: Full-length precursor as transfected; processing on the cell is not described; also called HEK293-monkey MSLN
T1 chain: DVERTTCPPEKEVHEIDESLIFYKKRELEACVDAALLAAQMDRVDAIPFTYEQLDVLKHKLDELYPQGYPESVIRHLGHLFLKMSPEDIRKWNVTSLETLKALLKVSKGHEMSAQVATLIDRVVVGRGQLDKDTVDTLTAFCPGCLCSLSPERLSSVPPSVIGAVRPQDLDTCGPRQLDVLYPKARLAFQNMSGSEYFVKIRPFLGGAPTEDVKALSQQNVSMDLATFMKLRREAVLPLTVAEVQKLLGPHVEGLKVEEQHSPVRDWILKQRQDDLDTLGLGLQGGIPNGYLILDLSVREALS


Assays:
[1] = biological target: T2, human MSLN-FL-his protein (human, UniProt Q13421 296-580); assay: ELISA, coated antigen, antibody 0.2 nM
T2 construct: Made in HEK293E cells, purified on nickel column; also called hMSLN-FL-his; human MSLN full-length protein; not shown: His tag
T2 sequence (Q13421 other isoform, or with tags, fused parts or gaps): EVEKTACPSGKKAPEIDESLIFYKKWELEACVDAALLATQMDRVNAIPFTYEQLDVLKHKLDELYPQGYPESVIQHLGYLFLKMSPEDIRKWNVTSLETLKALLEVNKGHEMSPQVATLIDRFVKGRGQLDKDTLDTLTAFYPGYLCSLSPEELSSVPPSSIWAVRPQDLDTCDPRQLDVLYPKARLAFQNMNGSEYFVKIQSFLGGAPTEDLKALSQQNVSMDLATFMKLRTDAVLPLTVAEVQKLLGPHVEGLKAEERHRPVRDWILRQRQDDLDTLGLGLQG

[2] = biological target: T2, human MSLN-FL-his protein; assay: ELISA, coated antigen, antibody 2 nM
[3] = biological target: T2, human MSLN-FL-his protein; assay: ELISA, coated antigen, antibody 0.02 nM
[4] = biological target: T2, human MSLN-FL-his protein; assay: ELISA, coated antigen, no antibody (blank)
[5] = biological target: T2, human MSLN-FL-his protein; assay: ELISA, coated antigen, antibody 0.002 nM
[6] = biological target: T2, human MSLN-FL-his protein; assay: ELISA, coated antigen, antibody 200 nM
[7] = biological target: T2, human MSLN-FL-his protein; assay: ELISA, coated antigen, antibody 0.0002 nM
[8] = biological target: T2, human MSLN-FL-his protein; assay: ELISA, coated antigen, antibody 20 nM
[9] = biological target: T3, human MSLN-R3-his protein (human, UniProt Q13421 487-598); assay: ELISA on coated antigen, antibody 0.002 nM
T3 construct: it is put last here; also called human MSLN-R3 protein; hMSLN-R3-his; not shown: His tag
T3 sequence (Q13421 495-606): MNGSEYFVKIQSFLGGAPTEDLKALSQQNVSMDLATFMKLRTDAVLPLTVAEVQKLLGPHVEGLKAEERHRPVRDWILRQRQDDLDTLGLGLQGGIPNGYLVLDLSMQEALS

[10] = biological target: T3, human MSLN-R3-his protein; assay: ELISA on coated antigen, no antibody (blank, column 'none')
[11] = biological target: T3, human MSLN-R3-his protein; assay: ELISA on coated antigen, antibody 0.2 nM
[12] = biological target: T3, human MSLN-R3-his protein; assay: ELISA on coated antigen, antibody 200 nM
[13] = biological target: T3, human MSLN-R3-his protein; assay: ELISA on coated antigen, antibody 0.02 nM
[14] = biological target: T3, human MSLN-R3-his protein; assay: ELISA on coated antigen, antibody 2 nM
[15] = biological target: T3, human MSLN-R3-his protein; assay: ELISA on coated antigen, antibody 20 nM
[16] = biological target: T3, human MSLN-R3-his protein; assay: ELISA on coated antigen, antibody 0.0002 nM
[17] = biological target: T1, monkey MSLN on HEK293T-monkey MSLN …; assay: FACS, HEK293T-monkey MSLN cells
[18] = biological target: T4, human MSLN on OVCAR3 tumor cells (human, UniProt Q13421 296-598); assay: FACS, OVCAR3 cells
T4 construct: whole, on cells; also called human MSLN protein
T4 sequence (Q13421 other isoform, or with tags, fused parts or gaps): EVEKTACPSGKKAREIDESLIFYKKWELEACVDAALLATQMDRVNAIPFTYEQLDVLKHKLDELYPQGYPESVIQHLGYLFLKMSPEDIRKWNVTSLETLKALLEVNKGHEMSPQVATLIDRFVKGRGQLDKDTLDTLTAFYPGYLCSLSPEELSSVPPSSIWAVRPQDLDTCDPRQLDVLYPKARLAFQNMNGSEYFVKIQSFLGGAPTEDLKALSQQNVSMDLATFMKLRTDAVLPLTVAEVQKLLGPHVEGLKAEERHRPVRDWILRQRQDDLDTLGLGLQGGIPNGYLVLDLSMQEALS

[19] = biological target: T5, human MSLN-hFc recombinant protein (human, UniProt Q13421 296-580); assay: SPR (Biacore 8K), MSLN-hFc captured, antibody injected
T5 construct: Captured by an anti-human IgG antibody on the chip; also called human MSLN protein; Acro MSN-H5253
T5 sequence (Q13421 other isoform, or with tags, fused parts or gaps): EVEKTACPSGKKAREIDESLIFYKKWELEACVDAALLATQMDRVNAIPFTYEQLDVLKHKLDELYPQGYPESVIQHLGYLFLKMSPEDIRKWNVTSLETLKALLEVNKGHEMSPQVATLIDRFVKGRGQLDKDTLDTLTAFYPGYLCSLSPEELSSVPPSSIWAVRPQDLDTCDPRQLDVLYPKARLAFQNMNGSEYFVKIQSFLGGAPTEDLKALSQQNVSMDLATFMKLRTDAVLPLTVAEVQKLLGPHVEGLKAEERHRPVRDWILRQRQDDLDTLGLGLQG

[20] = biological target: T6, human MSLN-R3 on HEK293T-hMSLN-R3 recombinant cells (human, UniProt Q13421 487-606); assay: FACS, HEK293T-hMSLN-R3 cells
T6 construct: the C-terminal limit is uncertain; also called human MSLN-R3 membrane protein
T6 sequence (Q13421 495-614): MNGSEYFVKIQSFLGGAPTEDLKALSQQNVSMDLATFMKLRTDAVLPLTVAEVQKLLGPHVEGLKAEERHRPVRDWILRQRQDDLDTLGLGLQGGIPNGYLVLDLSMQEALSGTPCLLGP

[21] = biological target: T1, monkey MSLN on HEK293T-monkey MSLN …; assay: FACS, HEK293T-monkey MSLN cells
[22] = biological target: T6, human MSLN-R3 on HEK293T-hMSLN-R3 …; assay: FACS, HEK293T-hMSLN-R3 cells; remark: listed apart in the source

Row | Binder | EC50 [17] | Maximum_MFI [17] | EC50 [18] | Maximum_MFI [18] | Kd [19] | koff [19] | kon [19] | EC50 [20] | Maximum_MFI [20] | Maximum_MFI [21] | binding result [21] | EC50 [22] | Maximum_MFI [22] | further results
1 | S009-F7.25.19 chimeric antibody (antibody, human IgG1, kappa, V domains shown, Human-murine chimeric antibody, human IgG1/kappa constant regions) VH: QVQLQQPGTELVKPGASVKLSCKASGYTFTSYWMHWVKQRPGQGLEWIGNIIPSNGGTKYNEKFKSKATLTVDKSSSTAYMQLSSLTSEDSAVYYCSPHYYGGSPGFAYWGQGTLITVSA VL: DIVMTQSQKFMSTSVGDRVSVICKASQNVGTNVAWYQQKPGQSPKALIYSASYRYSGVPDRFTGSGSGTDFTLTISNVQSEDLAEYFCQQYNSYPLTFGGGTKLEIKR |  |  |  |  |  |  |  |  |  |  |  |  |  | OD450 [1]: 2.4; OD450 [2]: 2.39; OD450 [3]: 1.9; OD450 [4]: 0.06; OD450 [5]: 1.25; OD450 [6]: 2.32; OD450 [7]: 0.52; OD450 [8]: 2.48
2 | S009-F7.21.16 (antibody, human IgG1, kappa, V domains shown, Human-murine chimeric antibody, human IgG1 heavy and kappa light constant regions) VH: QVQLQQPGTELVKPGASVKLSCKASGYTFTTFWMHWVKQRPGQGLEWIGGVNPTNGGTNYNEKFRTKATLTVDKSSTTADMQLSSLTSEDSAVYYCAPHYISSRPGFAYWGQGTLVTVSG VL: DIVMTQSQKFMSTSGGDRVSVTCKASQNVGTNVAWYQQKPGQSPKALIYSASYRYSGVPDRFTGSGSGTDFILTISNVQSEDLAEYFCQQYNSYPLTFGGGTKLEIKR |  |  |  |  |  |  |  |  |  |  |  |  |  | OD450 [9]: 0.71 OD; OD450 [10]: 0.08 OD; OD450 [11]: 2.5 OD; OD450 [12]: 2.92 OD; OD450 [13]: 1.32 OD; OD450 [14]: 2.75 OD; OD450 [15]: 2.52 OD; OD450 [16]: 0.31 OD
3 | S009-F7.69.8 (antibody, human IgG1, kappa, V domains shown, Human-murine chimeric antibody, human IgG1 heavy and kappa light constant regions) VH: EVHLQQSGPELVKPGASVRIPCKASGYTFTDYNMDWVKQSHGKSLEWIGDINPDNGGTIYTQKFKGKATLTVDKSSSTAYMELRSLTSEDTAVYYCARRLHYYGSSGLDYWGQGTTLTVSS VL: DIQMTQSPASLSAYVGETVTITCRASGNIHNYLAWYQQKQGKSPQLLVYNAKTLADGVPSRFSGSGSGTQYSLKINSLQPEDFGSYYCQHFWSTVWTFGGGTKLEIKR |  |  |  |  |  |  |  |  |  |  |  |  |  | OD450 [9]: 0.11 OD; OD450 [10]: 0.07 OD; OD450 [11]: 1.96 OD; OD450 [12]: 2.56 OD; OD450 [13]: 0.38 OD; OD450 [14]: 2.54 OD; OD450 [15]: 2.55 OD; OD450 [16]: 0.06 OD
4 | F2.39.3-H2 (scFv, not shown: small tags and cut ends, also called S009-F2.39.3 humanized antibody VH1 + VL2) scFv: EVQLVQSGAEVKKPGASVKVSCKASGYTFTNYWMHWVRQAPGQGLEWMGNINPSSGDSYYNERFMSRVTMTVDKSTSTVYMELSSLRSEDTAVYYCARSGGLWLAFWGQGTLVTVSSGGGGSGGGGSGGGGSDIVMTQSPDSLAVSLGERATINCKSSQTLLNSVSQNNYLAWYQQKPGQSPTLLIYFASTRESGVPDRFSGSGSGTDFTLTISSLQAEDVAVYYCQQHYRTPYTFGGGTKVEIK | 8.74 nM | 24900 MFI | 54 nM | 4220 MFI | 0.985 nM | 3.39e-05 s⁻¹ | 34400 M⁻¹ s⁻¹ | 6.33 nM | 5970 MFI |  |  |  |  | 
5 | F2.39.3-H9 (scFv, not shown: small tags and cut ends, also called S009-F2.39.3 humanized antibody VH3 + VL1) scFv: EVQLVQSGAEVKKPGASVKVSCKASGYTFTNYWMHWVRQAPGQGLEWMGNINPSSGDSYYNERFMSRVTMTVDKSTSTAYMELSSLRSEDTAVYYCARSGGLWLAFWGPGTLVTVSSGGGGSGGGGSGGGGSDIVMTQSPDSLAVSLGERATINCKSSQTLLNSVSQNNYLAWYQQKPGQSPKLLIYFASTRESGVPDRFSGSGSGTDFTLTISSLQAEDVAVYYCQQHYRTPYTFGGGTKVEIK | 7.73 nM | 23300 MFI | 17.2 nM | 4300 MFI | 0.734 nM | 3.19e-05 s⁻¹ | 43500 M⁻¹ s⁻¹ | 5.66 nM | 5560 MFI |  |  |  |  | 
6 | F2.23.12-H5 (scFv, not shown: small tags and cut ends, also called S009-F2.23.12 humanized antibody VH2 + VL1) scFv: EVQLVQSGAEVKKPGASVKVSCKASGYTFTNYWMHWVRQAPGQGLEWMGNINPSNGGPYYNERFRSRVTMTVDKSTSTAYMELSSLRSEDTAVYYCARPYYGSSYGYFDYWGQGTTVTVSSGGGGSGGGGSGGGGSDIQMTQSPSSLSASVGDRVTITCKASQDINKYIAWYQQKPGKAPKLLIHYTSELQPGVPSRFSGSGSGTDFTFTISSLQPEDIATYYCLQYANPLRTFGGGTKVEIK | 5.86 nM | 17700 MFI | 11.3 nM | 3340 MFI | 7.74 nM | 0.000473 s⁻¹ | 61200 M⁻¹ s⁻¹ | 4.16 nM | 4730 MFI |  |  |  |  | 
7 | F2.23.12-H13 (scFv, not shown: small tags and cut ends, also called S009-F2.23.12 humanized antibody VH4 + VL1) scFv: EVQLVQSGAEVKKPGASVKVSCKASGYTFTNYWMHWVRQAPGQGLEWMGNINPSQGGPYYNERFRSRVTMTVDKSTSTAYMELSSLRSEDTAVYYCARPYYGSSYGYFDYWGQGTTVTVSSGGGGSGGGGSGGGGSDIQMTQSPSSLSASVGDRVTITCKASQDINKYIAWYQQKPGKAPKLLIHYTSELQPGVPSRFSGSGSGTDFTFTISSLQPEDIATYYCLQYANPLRTFGGGTKVEIK | 10.9 nM | 17600 MFI | 38.6 nM | 3110 MFI | 31.1 nM | 0.000482 s⁻¹ | 15500 M⁻¹ s⁻¹ | 8.3 nM | 4710 MFI |  |  |  |  | 
8 | F3.80.22-H2 (scFv, not shown: small tags and cut ends, also called S009-F3.80.22 humanized antibody VL1 + VH2) scFv: DIVMTQTPLSLPVTPGEPASISCRSSQSLEHNNGNTYLHWFLQKPGQSPQLLIYKVSNRFSGVPDRFSGSGSGTDFTLKISRVEAEDVGVYYCSQSTHVPFTFGQGTKLEIKGGGGSGGGGSGGGGSEVQLVQSGAEVKKPGATVKISCKASGYTFTDYEIHWVQQAPGKGLEWMGAFDPEIGGSAYNQKFKDRVTITADKSTSTAYMELSSLRSEDTAVYYCTDYYGSSSGYFDVWGQGTTVTVSS |  |  |  |  |  |  |  |  |  | 303 MFI | no binding | 0.67 nM | 1790 MFI | 
9 | F3.80.22-H1 (scFv, not shown: small tags and cut ends, also called S009-F3.80.22 humanized antibody VL1 + VH1) scFv: DIVMTQTPLSLPVTPGEPASISCRSSQSLEHNNGNTYLHWFLQKPGQSPQLLIYKVSNRFSGVPDRFSGSGSGTDFTLKISRVEAEDVGVYYCSQSTHVPFTFGQGTKLEIKGGGGSGGGGSGGGGSEVQLVQSGAEVKKPGATVKISCKVSGYTFTDYEIHWVQQAPGKGLEWMGAFDPEIGGSAYNQKFKDRVTITADKSTDTAYMELSSLRSEDTAVYYCTDYYGSSSGYFDVWGQGTTVTVSS |  |  |  |  |  |  |  |  |  | 278 MFI | no binding | 2.14 nM | 1700 MFI | 
10 | F3.80.22-H3 (scFv, not shown: small tags and cut ends, also called S009-F3.80.22 humanized antibody VL1 + VH3) scFv: DIVMTQTPLSLPVTPGEPASISCRSSQSLEHNNGNTYLHWFLQKPGQSPQLLIYKVSNRFSGVPDRFSGSGSGTDFTLKISRVEAEDVGVYYCSQSTHVPFTFGQGTKLEIKGGGGSGGGGSGGGGSEVQLVQSGAEVKKPGATVKISCKASGYTFTDYEIHWVQQAPGKGLEWMGAFDPEIGGSAYNQKFKDRVTITADKSTSTAYMELSSLRSEDTAVYYCTDYYGSSSGYFDVWGTGTTVTVSS |  |  |  |  |  |  |  |  |  | 330 MFI | no binding | 4.41 nM | 1750 MFI | 
